Test results as given in paper doi:10.1101/2021.10.11.463969.

Biological target: Measles virus matrix protein (MeV-M) fused to a twin StrepII tag (Measles virus) (UniProt Q9W850)
Assay: SEC-MALS

Substance “Measles virus matrix protein (MeV-M) fused to a twin StrepII tag (from UniProt Q9W850 1-335) (natural protein)” has a stoichiometry N of 2.
